What all share (assay): flow cytometry, transfected 293T cells
A general note: A flow cytometer gives signals particle by particle.

Test [1] addresses CHIKV E2-E1 envelope glycoproteins (strain S27), E2 mutant I48A (chikungunya virus strain S27) (UniProt Q8JUX5).
Test [2] addresses CHIKV E2-E1 envelope glycoproteins (strain S27), E2 mutant I54A (chikungunya virus strain S27) (UniProt Q8JUX5).
Test [3] addresses CHIKV E2-E1 envelope glycoproteins (strain S27), E2 mutant I93A (chikungunya virus strain S27) (UniProt Q8JUX5).
In test [4] the target is CHIKV E2-6K-E1 envelope proteins (strain S27) with E2 C201A (Chikungunya virus strain S27) (UniProt Q8JUX5).
The target of test [5] is CHIKV E2-6K-E1 envelope proteins (strain S27) with E2 C203A (Chikungunya virus strain S27) (UniProt Q8JUX5).
Test [6] deals with CHIKV E2-6K-E1 envelope proteins (strain S27) with E2 C220A (Chikungunya virus strain S27) (UniProt Q8JUX5).
Test [7] deals with CHIKV E2-6K-E1 envelope proteins (strain S27) with E2 G186A (Chikungunya virus strain S27) (UniProt Q8JUX5).
The target in test [8] is CHIKV E2-6K-E1 envelope proteins (strain S27) with E2 G204A (Chikungunya virus strain S27) (UniProt Q8JUX5).
Test [9] has as its target CHIKV E2-6K-E1 envelope proteins (strain S27) with E2 G209A (Chikungunya virus strain S27) (UniProt Q8JUX5).
Test [10] has as its target CHIKV E2-6K-E1 envelope proteins (strain S27) with E2 I190A (Chikungunya virus strain S27) (UniProt Q8JUX5).
The target of test [11] is CHIKV E2-6K-E1 envelope proteins (strain S27) with E2 I211A (Chikungunya virus strain S27) (UniProt Q8JUX5).
Test [12] has as its target CHIKV E2-6K-E1 envelope proteins (strain S27) with E2 K189A (Chikungunya virus strain S27) (UniProt Q8JUX5).
For test [13], the target named is CHIKV E2-6K-E1 envelope proteins (strain S27) with E2 K200A (Chikungunya virus strain S27) (UniProt Q8JUX5).
Test [14] addresses CHIKV E2-6K-E1 envelope proteins (strain S27) with E2 K215A (Chikungunya virus strain S27) (UniProt Q8JUX5).
Test [15] has as its target CHIKV E2-6K-E1 envelope proteins (strain S27) with E2 L180A (Chikungunya virus strain S27) (UniProt Q8JUX5).
The target of test [16] is CHIKV E2-6K-E1 envelope proteins (strain S27) with E2 L181A (Chikungunya virus strain S27) (UniProt Q8JUX5).
Test [17] concerns the target CHIKV E2-6K-E1 envelope proteins (strain S27) with E2 N187A (Chikungunya virus strain S27) (UniProt Q8JUX5).
The target of test [18] is CHIKV E2-6K-E1 envelope proteins (strain S27) with E2 N193A (Chikungunya virus strain S27) (UniProt Q8JUX5).
Test [19] has as its target CHIKV E2-6K-E1 envelope proteins (strain S27) with E2 N202A (Chikungunya virus strain S27) (UniProt Q8JUX5).
The target of test [20] is CHIKV E2-6K-E1 envelope proteins (strain S27) with E2 N218A (Chikungunya virus strain S27) (UniProt Q8JUX5).
Test [21] concerns the target CHIKV E2-6K-E1 envelope proteins (strain S27) with E2 N219A (Chikungunya virus strain S27) (UniProt Q8JUX5).
The target of test [22] is CHIKV E2-6K-E1 envelope proteins (strain S27) with E2 Q183A (Chikungunya virus strain S27) (UniProt Q8JUX5).
Test [23] deals with CHIKV E2-6K-E1 envelope proteins (strain S27) with E2 Q184A (Chikungunya virus strain S27) (UniProt Q8JUX5).
The target in test [24] is CHIKV E2-6K-E1 envelope proteins (strain S27) with E2 S185A (Chikungunya virus strain S27) (UniProt Q8JUX5).
In test [25] the target is CHIKV E2-6K-E1 envelope proteins (strain S27) with E2 S194A (Chikungunya virus strain S27) (UniProt Q8JUX5).
The target of test [26] is CHIKV E2-6K-E1 envelope proteins (strain S27) with E2 T191A (Chikungunya virus strain S27) (UniProt Q8JUX5).
Test [27] deals with CHIKV E2-6K-E1 envelope proteins (strain S27) with E2 T196A (Chikungunya virus strain S27) (UniProt Q8JUX5).
Test [28] concerns the target CHIKV E2-6K-E1 envelope proteins (strain S27) with E2 V188A (Chikungunya virus strain S27) (UniProt Q8JUX5).
For test [29], the target named is CHIKV E2-6K-E1 envelope proteins (strain S27) with E2 V192A (Chikungunya virus strain S27) (UniProt Q8JUX5).
Test [30] deals with CHIKV E2-6K-E1 envelope proteins (strain S27) with E2 V197A (Chikungunya virus strain S27) (UniProt Q8JUX5).
For test [31], the target named is CHIKV E2-6K-E1 envelope proteins (strain S27) with E2 V216A (Chikungunya virus strain S27) (UniProt Q8JUX5).
Test [32] concerns the target CHIKV E2-6K-E1 envelope proteins (strain S27) with E2 Y199A (Chikungunya virus strain S27) (UniProt Q8JUX5).

As to CHIKV mAb CHKV-88 (antibody), the Binding Reactivity (% WT) was found to be 39.6 % WT in test [1], 116 % WT in test [2] and 29.1 % WT in test [3].
As for CHIKV mAb IM-CKV065 (antibody), the Binding Reactivity (% WT) in test [1] is 0.3 % WT; in [2], 80.8 % WT; in [3], -0.9 % WT.
The matching figures for CHIKV mAb IM-CKV063 (antibody): 7.9 % WT, 102 % WT and 8.4 % WT.
On the same counts, the results for CHIKV mAb C9 (antibody) are 10.7 % WT, 110 % WT and 10.4 % WT.
Take “Mxra8-Fc (mouse Mxra8 extracellular domain fused to mouse IgG2b Fc) (Fc fusion)”: the Binding Reactivity (% WT) in test [4] is 9.6 % WT; in test [5], 10.4 % WT; in [6], 60.2 % WT; in [7], 108 % WT; in test [8], 76.7 % WT; in [9], 77.9 % WT. Moreover, the Binding Reactivity (% WT) in [10] was found to be 9.4 % WT; in [11] it was 81.1 % WT; in [12], 156 % WT; in test [13], 75.5 % WT; in [14], 106 % WT; in [15] it was 57 % WT. Also, the Binding Reactivity (% WT) in test [16] came out at 53.2 % WT; in [17] it was 90.5 % WT; in [18], 120 % WT; in [19] it was 80.6 % WT; in test [20], 56.5 % WT; in test [21], 66.6 % WT. The Binding Reactivity (% WT) in test [22] stood at 96.1 % WT; in [23] it was 130 % WT; in [24] it was 88.1 % WT; in test [25], 87 % WT; in test [26], 87.4 % WT; in [27], 86.6 % WT. In addition, the Binding Reactivity (% WT) was determined as 55.2 % WT in [28]; 56.9 % WT in test [29]; 33.9 % WT in test [30]; 82.9 % WT in [31]; 15.9 % WT in test [32]; 11.1 % WT in test [1]. In addition, the Binding Reactivity (% WT) in [2] was found to be 104 % WT; in test [3], 14.6 % WT.

Source of the values: US20240124553A1.
